Reference: publication PMC2647316 (Nucleic Acids Research, 2008)

Assays:
Assay in all cases: SPR
[1] = biological target: T1, GkDnaC replicative helicase WT (Geobacillus kaustophilus HTA426, UniProt Q5KU75 1-454)
T1 sequence: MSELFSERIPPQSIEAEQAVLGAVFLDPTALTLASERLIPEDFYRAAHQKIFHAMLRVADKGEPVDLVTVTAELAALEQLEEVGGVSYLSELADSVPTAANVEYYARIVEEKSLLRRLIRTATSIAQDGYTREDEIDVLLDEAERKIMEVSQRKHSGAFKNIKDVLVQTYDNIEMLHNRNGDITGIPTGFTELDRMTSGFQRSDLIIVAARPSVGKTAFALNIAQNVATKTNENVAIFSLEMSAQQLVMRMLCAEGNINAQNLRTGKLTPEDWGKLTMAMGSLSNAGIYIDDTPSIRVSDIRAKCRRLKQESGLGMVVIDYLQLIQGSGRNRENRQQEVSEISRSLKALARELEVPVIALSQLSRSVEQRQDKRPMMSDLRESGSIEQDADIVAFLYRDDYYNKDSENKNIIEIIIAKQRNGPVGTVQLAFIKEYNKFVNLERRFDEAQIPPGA

GkDnaC R332A = biological target: T2, GkDnaC R332A (Geobacillus kaustophilus HTA426, UniProt Q5KU75 1-454, R332A)
T2 sequence: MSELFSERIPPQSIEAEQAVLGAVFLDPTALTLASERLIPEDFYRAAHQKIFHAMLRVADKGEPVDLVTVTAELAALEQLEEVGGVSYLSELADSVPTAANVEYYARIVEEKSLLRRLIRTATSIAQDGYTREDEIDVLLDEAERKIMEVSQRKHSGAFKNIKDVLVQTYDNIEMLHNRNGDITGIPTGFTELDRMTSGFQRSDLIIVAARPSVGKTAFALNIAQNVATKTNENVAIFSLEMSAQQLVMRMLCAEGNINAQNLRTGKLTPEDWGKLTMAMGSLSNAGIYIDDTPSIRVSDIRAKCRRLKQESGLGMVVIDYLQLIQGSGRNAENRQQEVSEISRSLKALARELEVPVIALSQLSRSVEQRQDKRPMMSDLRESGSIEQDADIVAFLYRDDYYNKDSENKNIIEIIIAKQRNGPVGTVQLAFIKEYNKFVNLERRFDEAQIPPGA

[2] = biological target: T3, GkDnaC R145K146A double mutant (Geobacillus kaustophilus HTA426, UniProt Q5KU75 1-454, R145A;K146A)
T3 sequence: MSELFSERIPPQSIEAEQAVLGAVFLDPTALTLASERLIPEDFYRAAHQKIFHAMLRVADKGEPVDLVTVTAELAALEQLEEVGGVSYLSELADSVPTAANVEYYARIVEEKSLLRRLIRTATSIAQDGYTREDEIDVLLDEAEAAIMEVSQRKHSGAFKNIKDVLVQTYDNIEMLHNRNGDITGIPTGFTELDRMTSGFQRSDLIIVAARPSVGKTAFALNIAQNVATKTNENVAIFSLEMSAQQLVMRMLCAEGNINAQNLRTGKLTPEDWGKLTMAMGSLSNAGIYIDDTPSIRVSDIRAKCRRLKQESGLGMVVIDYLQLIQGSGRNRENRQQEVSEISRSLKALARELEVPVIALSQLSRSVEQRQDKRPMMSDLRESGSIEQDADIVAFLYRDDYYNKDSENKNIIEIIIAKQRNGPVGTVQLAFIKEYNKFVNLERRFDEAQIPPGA

GkDnaC K50A = biological target: T4, GkDnaC K50A (Geobacillus kaustophilus HTA426, UniProt Q5KU75 1-454, K50A)
T4 sequence: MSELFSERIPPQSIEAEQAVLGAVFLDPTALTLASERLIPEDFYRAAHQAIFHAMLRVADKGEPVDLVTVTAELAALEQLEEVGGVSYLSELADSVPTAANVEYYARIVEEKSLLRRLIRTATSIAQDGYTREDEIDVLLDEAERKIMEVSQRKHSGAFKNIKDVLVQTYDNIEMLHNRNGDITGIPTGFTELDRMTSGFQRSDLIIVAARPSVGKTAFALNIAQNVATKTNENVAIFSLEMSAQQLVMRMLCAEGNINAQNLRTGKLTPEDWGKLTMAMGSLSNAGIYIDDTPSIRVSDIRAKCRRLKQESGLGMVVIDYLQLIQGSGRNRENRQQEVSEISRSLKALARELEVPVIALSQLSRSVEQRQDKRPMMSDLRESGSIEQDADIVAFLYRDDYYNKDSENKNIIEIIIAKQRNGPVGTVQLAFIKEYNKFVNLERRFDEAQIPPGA

Binder: TTTTTTTTTTTTTTTTTTTTTTTTTTTTTT (ssDNA) [5'Bio-(dT)30]
- Kd [1]: 0.0469 µM
- Kd (GkDnaC R332A): 6.64 µM
- Kd [2]: 27 µM
- Kd (GkDnaC K50A): 1.41 µM
